{"source": "paper PMC3149649", "about": "“Evidence for a Two-Metal-Ion Mechanism in the Cytidyltransferase KdsB, an Enzyme Involved in Lipopolysaccharide Biosynthesis” (PLoS ONE, 2011)", "target": "the molecule itself", "assay": "SEC; analytical gel filtration chromatography of purified AA-LCKS; conditions not given"}
{"protein": "LPS-specific CMP-Kdo synthetase (KdsB) from Aquifex aeolicus (enzyme, CMP-Kdo synthetase KdsB (EC 2.7.7.38) of Aquifex aeolicus; the structure describes residues 2-234 (N-terminal domain 2-91 and 220-234, C-terminal domain 100-210); monomer 27 kDa by SDS-PAGE; No tag is mentioned; In the crystal the protein carries CTP and two Mg2+ ions; also called AA-LCKS; CKS) MRRAVIIPARLGSTRLKEKPLKNLLGKPLIRWVVEGLVKTGERVILATDSERVKEVVEDLCEVFLTPSDLPSGSDRVLYVVRDLDVDLIINYQGDEPFVYEEDIKLIFRELEKGERVVTLARKDKEAYERPEDVKVVLDREGYALYFSRSPIPYFRKNDTFYPLKHVGIYGFRKETLMEFGAMPPSKLEQIEGLEQLRLLENGIKIKVLITENYYHGVDTEEDLKIVEEKLKNL", "values": [{"measurement": "stoichiometry N", "value": 2}]}
